# Laboratory results published in the DeepSol protein solubility set.
# Assay: soluble on expression in E. coli; label from the status in PepcDB or PDB records
row,Sequence,soluble on expression in E. coli
1,VELIGRSEWINQYRRRLQQLSETDIAVWLYGAPGTGRMTGARYLHQFGRNAQGEFVYRELTPDNAPQLNDFIALAQGGTLVLSHPEHLTREQQYHLVQLQSQEHRPFRLIGIGDTSLVELAASNHIIAELYYCFAMTQIACLPLT,soluble
2,VFPSNATFGMGDRVRKKSGAAWQGQIVGWYCTNLTPEGYAVESEAHPGSVHIYPVAALERIN,soluble
3,VGDFTYSISANLSDFTSKMGNLNGTQFLGNQVKMEGSEYNEWYGYVSDGLFLTQEDVDKSPKLNNSVKVGDIKYKDISGPDGVPDGVISPEYDRVLLGGSLPHYMFGLTFNAAYKGWDFGLTLQGVGSQKSQISAAMIEGLRDNWLNFPTILDGNYWSPKNTDEQNATAKYPRLTRTNRDANFCMSDYWLYNGRYIRLKNLSVGYTLPKAWTTKACMNTVRLYVSGSDLFTISNAPKGWDPEVSTEGYPITTSLIFGVSINF,not soluble
4,VGKEKREIELFVSDPELEAEVKAASEGKMKAAIKTEEKKAREAAIEEVKEEILESYKAKELENEAEILGEVAHILEMIEKDEMRRLISQDKIRPDGRKVNEIRP,not soluble
5,VKKIGILVLITALLAGIIPKSALAEEPKFNYVDAFAKSILFYEANWCGPDAGNNRIKWRGPCHIEDGKDVGLDLTGGFHDCGDHVKFGLPQCASASTLAWAYHEFSDVFIEKGQDEYMLNILKHFCDYFMKCYPEKNKFYYQVGDGDVDHQYWGPPELQSYDRPTYYVATPENPGSDVAGDTAAALALMYLNYKDRDLEYAEKCLAYAKDIYEFGMTYRGNSKGQSYYLPRDYLDELMWGSLWLYVATGEQKYMDNLEKLMVEKRIGDEAGNSFNDNWTQCWDYVLTGVFIKLATLTDKPLYKQIAEDHLDYWQNRIKSTPGGLKYLDSWGVCKYPAAESMVQLVYYKYTGDKRCLDFAKSQIDYILGDNPKKMSYVVGFGDNYPKFPHHRAASGRLEGPPADETKNDPQRHILYGALVGGADINDEYYDDIDKYVYSETGLDYNAGLVGALAGMSKYFGQGQMPEDTPGIEGEPPVYYADAKIYEENESGITVDLNMYNIVTSPPQYESDLSCRYFVDLSEYAGENIDMSKFVTKVYYSPAGATISELKPYDKEKNIYYVEISFPNPVYARTYVQFCIYYYENKLWDSSNDFSYQGIGDTYKTLENIPIYKNGVLVAGKEPSGAGPVEPTPPPKNYVYGDVNGDGKVNSTDCSIVKRYLLKNIEDFPYEYGKEAGDVNGDGKVNSTDYSLLKRFVLRNIDKFPVEQ,not soluble
6,VKLDDHTYQINGRVLLDDLNKKFGIEFEDSEDIDTIGGWLQSQNTNLQKDDFVDTEYDRWTITEIDNHQIIWVNLNYEFNSGRPSVNEEQEDDERD,not soluble
7,VKVNPSVKPICDKCRLIRRHGRVMVICSDPRHKQRQG,not soluble
8,VLHQPPAMSSALGTTIRLTCTLRNDHDIGVYSVYWYQQRPGHPPRFLLRYFSQSDKSQGPQVPPRFSGSKDVARNRGYLSISELQPEDEAMYYCAMGARSTHVFGSGTQLTVLSAA,soluble
9,VLQTRNYTCGPAALATVLQRLGVNTTEDELAGLAGTTEEGTTMQGLLEASRAKGMNATGMKLNISELKENMIAYTINDGTGHYTVINEITNDTIKLADPSLGNIEMNIEEFAEIYSGYTLVI,soluble
10,VMPFTEHDKIILRSYEAVVDGIASLIGPFCEIVLHSLEDLNTSAIKIANGENTGRQVGSPITDLALKMLKDIEGSERNFSRSYFTRAKGGVLMKSITVAIRNGENRVIGLLCINVNLDAPFSQVLQSFMPTQEAKEAA,soluble
11,VMRLVTLRSHDQYNTTIYAMDDRYRGVFGRRDVLFMNEQDMAAQGLEHGDRVDIHTALPGSALTLEDITVVAYGIAPGTVGAYYPEANVLVPLNYLDEESGTPSYKSVPVRLTLRSKEIRPLVGGR,not soluble
12,VNEVLAKNLSLLKEYQPETYLKLDRYIKGEYVPKDNSVEKILLARQDDLIINILVKCSDKDFLLCDHENPINEAYAWIDKYIDPSNKADIVFGMGLAFHLEVLLTSFPNKKVIVIEPNINLFYQIACIRNLEPVIKKAEIIVDEDLDVILERINSLFWDTEKGGIQVQPLEVYGEMFPEMWDKLRDSFIKLANNFTVDIATRRKFGELWVHNNIKNLNKICEASNAGVLVGKFKGIPGILVSAGPSLEKNIHLLKGLEDKCVIMAAGTAVRIMEDFGLAPHFMVGIDAGAKEGEIHSNVKNKDIYFIYSNQVSTYSVDGYKGPKFVMNYPIDMYTAGFFEYAGIKSDFFLSGPSVANTCFDILFKMGCDPIIIIGQDMAFTYGSMYAGEVPGTVVDGAGEAKRRGYVLAKDIYGNEVYTTRPFLAMRNWFEGYFEKVRDKTTIINATEGGLNISYARNETLEAALKSCNLSESGIKDHIRSLHEEGKFADTVASKIEEYRAYVQREIRRLEQLSKRQLETAEDLKRDVYHPSKSRSRFIKAVNSINEMSDRVLQSPIYNSLLKNLVEIDFYIIKAEVDRLVKILTKYDDIKNVYVNAILSQNQKLNASLGKIKKFFDESDVTA,soluble
13,VRSVQEHQRVVAEMMRACRPITVPLTQAQGLVLGGDVVAPLSLPVFDNSAMDGYAVRAEDTSGATPQNPVMLPVAEDIPAGRADMLTLQPVTAHRIMTGAPVPTGATAIVPVEATDGGVDSVAIRQQATPGKHIRRSGEDVAAGTTVLHNGQIVTPAVLGLAAALGLAELPVLPRQRVLVISTGSELASPGTPLQPGQIYESNSIMLAAAVRDAGAAVVATATAGDDVAQFGAILDRYAVDADLIITSGGVSAGAYEVVKDAFGSADYRGGDHGVEFVKVAMQPGMPQGVGRVAGTPIVTLPGNPVSALVSFEVFIRPPLRMAMGLPDPYRPHRSAVLTASLTSPRGKRQFRRAILDHQAGTVISYGPPASHHLRWLASANGLLDIPEDVVEVAAGTQLQVWDLT,not soluble
14,VSRSRKEEERQEQSARLLSKLRRFDDLDRNWPIKILIQGLRFPIRSEQRLTEYFGCSNSYEISLRDIMNFLITDYEKIPLDLYEVCPAYKQKQIGRKTYSAIVNHLSEQGLGSTFRCEWNMRLKKLIRFMEKGWEYIPDSFRQYEYRA,soluble
15,VTAEEHVESEPLTKRDFEALARFRFGIRRYVRFSEDTVRDHGLTPQHYQLLLALKGFPGREWATMRELADRLQLRHHSVVELVDRAQKQGLVERAPHPSDARAVRVELTEHGQLILARLSAMHRDELLRLGPALELPIWDDPPQDR,not soluble
16,VTAHSIARRFGAPIETLARAADRIGEGDFDVTLPMTNVAEVGQLTRRFGLMAEALRQYRKTSVEEVLSGERRLQAVLDSIDDGLVIFDNQGRIEHANPVAIRQLFVSNDPHGKRIDEILSDVDVQEAVEKALLGEVQDEAMPDLVVDVAGESRLLAWSLYPVTHPGGHSVGAVLVVRDVTEQRAFERVRSEFVLRASHELRTPVTGMQMAFSLLRERLDFPAESREADLIQTVDEEMSRLVLLINDLLNFSRYQTGMQKLELASCDLVDLLTQAQQRFIPKGEARRVSLQLELGDELPRLQLDRLQIERVIDNLLENALRHSSEGGQIHLQARRQGDRVLIAVEDNGEGIPFSQQGRIFEPFVQVGRKKGGAGLGLALCKEIIQLHGGRIAVRSQPGQGARFYMLLP,not soluble
17,VTALDWRSALTADEQRSVRALVTATTAVDGVAPVGEQVLRELGQQRTEHLLVAGSRPGGPIIGYLNLSPPRGAGGAMAELVVHPQSRRRGIGTAMARAALAKTAGRNQFWAHGTLDPARATASALGLVGVRELIQMRRPLRDIPEPTIPDGVVIRTYAGTSDDAELLRVNNAAFAGHPEQGGWTAVQLAERRGEAWFDPDGLILAFGDSPRERPGRLLGFHWTKVHPDHPGLGEVYVLGVDPAAQRRGLGQMLTSIGIVSLARRLGGRKTLDPAVEPAVLLYVESDNVAAVRTYQSLGFTTYSVDTAYALAGTDN,not soluble
18,VTLLEQNPRWRLVPRGQAVNLRCILKNSQYPWMSWYQQDLQKQLQWLFTLRSPGDKEVKSLPGADYLATRVTDTELRLQVANMSQGRTLYCTCSAAPDWGASAETLYFGSGTRLTVL,soluble
19,VTLNTIALELVPPNLEGGKERAIEDARKVVQYSAASGLDGRIRHVMMPGMIAEDDDRPIPMQPKLDVLDFWSIIKPELAGVHGLCTQVTAFMDEPSLHRRLVDLSDAGMEGIVFVGVPRTMQDGEGSGVAPTDALSLYRQLVANRGVIVIPTRDGEQGRLNFKCSRGATYGMTQLLYSDAIVGFLREFARTTEHRPEILLSFGFVPKVETRIGLINWLIQDPGNAAVADEQAFVQKLAGSEPARRRRLMVDLYKRVLDGVADLGFPLSIHLEATYGVSAAAFETFAEMLAYWSPAEPGKPD,not soluble
